Measured values: article PMC9349188 (Nature Communications, 2022)

Legend:
[1] = biological target: T1, AMC009 SOSIP trimer (SOSIP version not stated, negative stain EM) (HIV-1); test: negative stain electron microscopy; details: both partners purified
T1 construct: copies: 3 + 3

[2] = biological target: AMC009 SOSIP trimer (SOSIPv4.2) (HIV-1); test: cell-based or functional assay

Binder	stoichiometry N [1]	neutralization of the AMC009 virus (TZM-bl cells), IC50 relative to ACS101 [2]
ACS103 Fab (Fab, V domains shown) VH: QVQLVQSGAEVKRPGASVRVSCEASGYRFTAYHIHWLRQAPGQGLEWMGWVNTLTSGVNYGWKFQGRVKMTRERSIDTDTAYLDLSGLRLDDTAVYYCARGNGKSDDERSTYQYFGPWGQGTLVTVSS VL: QTVVTQPASVSGSPGQSITISCAGSSSDIGSYDYVSWYQQHPGKAPKVVIYDVTKRPSDISHRFSASKSGNTASLTISGLQPEDEAQYRCCTYAQTVLCGGGTKLTVL	3 Fabs per trimer	–
ACS101 Y100fW mutant monoclonal antibody (IgG) (antibody, V domains shown) VH: EVQLLESGAEVKKPGASVRVSCEASGYTFTKYFIHWVRQAPGHGLEWIGWINTLTSGVNYARNFQGRLTLTRDLSTETVYMDLRNLKSDDTAVYYCARGGRGYDEPWGAWTWLDPWGQGSLVTVSS VL: SYELTQPASVSGSPGQSITISCTGSSIGSYDLVSWYQQYPGKAPKVIIFEVSKRPSGVSHRFSGSKSGNTAALTISGLQVEDEAIYHCYSYDDMIIFGGGTRLTVL	–	~12 fold
